This note sets out measurements from US20110104167A1, “Compositions and Methods for Diagnosing and Treating Insulin Resistance” (YEDA RESEARCH AND DEVELOPMENT CO. LTD., priority 2004, published 2011).

Assay [1] deals with Fao cells. The experiment in a line: Insulin-induced Tyr phosphorylation of Myc-IRS-1 in adenovirus-infected Fao cells. The class given is cell-based, rat. As to conditions: 60 min insulin. As for the experimental part:
FIGS. 3a-b show Insulin-induced Tyr phosphorylation of IRS-1^7A in Fao cells. FIG. 3a—Fao cells were infected with Ad-Myc-IRS-1^WT or Ad-Myc-IRS-1^7A at 7×10^7 PFU/ml. Following 48 hours, the cells were starved in serum-free RPMI medium for 16 h and were then treated with insulin for the indicated times. Cell extracts were prepared and samples (1 mg) were subjected to immunoprecipitation (IP) with anti-Myc antibodies. Immunocomplexes were resolved on 7.5% SDS-PAGE and immunoblotted with anti-pY antibodies. In parallel, samples (100 μg) of total cell extracts were resolved on 7.5% SDS-PAGE and immunoblotted with anti-Myc antibodies. FIG. 3b—The bands corresponding to anti-pY/total Myc-IRS-1 were quantified by densitometry and are presented as a bar graph. Results are of a representative experiment carried out in duplicate.
FIGS. 11a-c show the effects of TPA and anisomycin on insulin-stimulated Tyr phosphorylation of IRS-1^WT, IRS-1^7A and IRS-1^408A. Fao cells were infected with Adeno-myc-IRS-1 wild type (WT); the 7A mutant; or the S408A mutant at a titer of 4-6×10^7 PFU/ml. Following 48 hours the cells were deprived of serum for 16 h, and were then treated for 60 min with 200 nM TPA (FIG. 11a), or 50 ng/ml anisomycin (FIG. 11b), followed by treatment with 100 nM insulin for the indicated times. […]

For assay [2], the system named is Fao cells. The experiment in a line: Effect of inducers of insulin resistance on insulin-stimulated Tyr phosphorylation of IRS-1 in Fao cells. The assay is classed as cell-based, rat. As for the experimental part: FIGS. 5a-c show the effects of TPA and anisomycin on insulin-induced Tyr phosphorylation of IRS-1^7A in Fao cells. Fao cells were infected with Ad-Myc-IRS-1^WT or Ad-Myc-IRS-1^7A at 7×10^7 PFU/ml. Following 48 hours the cells were deprived of serum for 16 h, and were then treated for 60 min with 200 nM TPA (FIG. 5a); 50 ng/ml of anisomycin (FIG. 5b) or 1 μg/ml of anisomycin (FIG. 5c). This was followed by treatment with 100 nM insulin for 2 min (FIG. 5a) or for the indicated times (FIGS. 5b-c). Cell extracts were prepared, and samples (1 mg) were subjected to immunoprecipitation (IP) with anti-Myc antibodies (FIG. 5a). Immunocomplexes were resolved on 7.5 SDS-PAGE and were immunoblotted with the indicated antibodies. Alternatively, total cell extracts (FIGS. 5b-c) were resolved on 7.5% SDS-PAGE and immunoblotted with the indicated antibodies. Results of a representative of four experiments are presented. The results of two independent experiments done in duplicates were quantified (FIG. 5a, right panel).
FIGS. 6a-b show the dose dependent effect of Palmitic acid on Insulin-induced Tyr phosphorylation of IRS-1 mutants in Fao cells. Fao cells were infected with Ad-Myc-IRS-1^WT or Ad-Myc-IRS-1^7A at 7×10^7 PFU/ml. Following 24 hours the cells were deprived of serum for 12 h, and were then further incubated for 12 h with or without the indicated concentrations of palmitic acid in serum free medium prior to being stimulated with 100 nM insulin for the indicated times. Cell extracts (100 μg) were resolved on 7.5% SDS-PAGE and immunoblotted with anti-PY and anti-Myc antibodies. The results of two independent experiments done in duplicates were quantified.
FIGS. 11a-c show the effects of TPA and anisomycin on insulin-stimulated Tyr phosphorylation of IRS-1^WT, IRS-1^7A and IRS-1^408A. Fao cells were infected with Adeno-myc-IRS-1 wild type (WT); the 7A mutant; or the S408A mutant at a titer of 4-6×10^7 PFU/ml. Following 48 hours the cells were deprived of serum for 16 h, and were then treated for 60 min with 200 nM TPA (FIG. 11a), or 50 ng/ml anisomycin (FIG. 11b), followed by treatment with 100 nM insulin for the indicated times. Cell extracts were prepared, samples (1 mg) were subjected to immunoprecipitation (IP) with anti-Myc antibodies. Immunocomplexes were resolved on 7.5% SDS-PAGE and immunoblotted with anti-PY or anti IRS-1 antibodies.
Infection of Fao cells with adenovirus—Fao cells were grown in RPMI medium containing 10% FCS. At 70% confluence cells were infected with adenoviruses harboring the gene of interest at a titer of 7 10^7 PFU/ml. After incubation for 2 h hours at 37° C., the virus-containing medium was diluted 1:5 in fresh RPMI medium. After 24 h the medium was replaced with a fresh RPMI medium containing 10% FCS. […]

B1: IRS-1^408A: mouse IRS-1 with Ser408 mutated to Ala (protein)
chain: MEQKLISEEDLNMASPPPDTDGFSDVRKVGYLRKPKSMHKRFFVLRAASEAGGPARLEYYENEKKWRHKSSAPKRSIPLESCFNINKRADSKNKHLVALYTRDEHFAIAADSEAEQDSWYQALLQLHNRAKAHHDGAGGGCGGSCSGSSGVGEAGEDLSYDTGPGPAFKEVWQVILKPKGLGQTKNLIGIYRLCLTSKTISFVKLNSEAAAVVLQLMNIRRCGHSENFFFIEVGRSAVTGPGEFWMQVDDSVVAQNMHETILEAMRAMSDEFRPRSKSQSSSSCSNPISVPLRRHHLNNPPPSQVGLTRRSRTESITATSPASMVGGKPGSFRVRASSDGEGTMSRPASVDGSPVSPSTNRTHAHRHRGSSRLHPPLNHSRSIPMPSSRCSPSATSPVSLSSSSTSGHGSTSDCLFPRRSAASVSGSPSDGGFISSDEYGSSPCDFRSSFRSVTPDSLGHTPPARGEEELSNYICMGGKGASTLAAPNGHYILSRGGNGHRYIPGANLGTSPALPGDEAAGAADLDNRFRKRTHSAGTSPTISHQKTPSQSSVASIEEYTEMMPAAYPPGGGSGGRLPGYRHSAFVPTHSYPEEGLEMHHLERRGGHHRPDTSNLHTDDGYMPMSPGVAPVPSNRKGNGDYMPMSPKSVSAPQQIINPIRRHPQRVDPNGYMMMSPSGSCSPDIGGGSSSSSSISAAPSGSSYGKPWTNGVGGHHTHALPHAKPPVESGGGKLLPCTGDYMNMSPVGDSNTSSPSECYYGPEDPQHKPVLSYYSLPRSFKHTQRPGEPEEGARHQHLRLSSSSGRLRYTATAEDSSSSTSSDSLGGGYCGARPESSLTHPHHHVLQPHLPRKVDTAAQTNSRLARPTRLSLGDPKASTLPRVREQQQQQQSSLHPPEPKSPGEYVNIEFGSGQPGYLAGPATSRSSPSVRCPPQLHPAPREETGSEEYMNMDLGPGRRATWQESGGVELGRIGPAPPGSATVCRPTRSVPNSRGDYMTMQIGCPRQSYVDTSPVAPVSYADMRTGIAAEKASLPRPTGAAPPPSSTASSSASVTPQGATAEQATHSSLLGGPQGPGGMSAFTRVNLSPNHNQSAKVIRADTQGCRRRHSSETFSAPTRAGNTVPFGAGAAVGGSGGGGGGGSEDVKRHSSASFENVWLRPGDLGGVSKESAPVCGAAGGLEKSLNYIDLDLAKEHSQDCPSQQQSLPPPPPHQPLGSNEGNSPRRSSEDLSNYASISFQKQPEDRQ
For the molecule B1, the “Tyr phosphorylation level after prolonged insulin treatment (Example 9)” value in the assay with Fao cells [1] is on record as “reduced to a similar extent”. Further, the “protection against the inhibitory effects of anisomycin” value in the assay with Fao cells [2] (50 ng/ml anisomycin 60 min) is reported as “could not protect”. In the assay on Fao cells [2] (200 nM TPA 60 min), the “protection from the inhibitory effects of TPA on insulin-stimulated Tyr phosphorylation” value is given as “partially prevented”.
